To fix the notation:
T1: EGFRvIII PEP3 peptide conjugated to OVA (EGFRvIII肽-OVA) (human, Cys 14 coupled to maleimide-activated ovalbumin (peptide:OVA 14.5:1))
T1 construct: also called EGFRvIII peptide-OVA; VIII-pep-OVA
T1 peptide: LEEKKGNYVVTDHC

B1: SC-EGFRvIII-XG1-131 (antibody, V domains shown)
VH: QVQLVESGGGVVQSGRSLRLSCAASGFTFRNYGMHWVRQAPGKGLEWVAVIWYDGSDKYYADSVRGRFTISRDNSKNTLYLQMNSLRAEDTAVYYCARDGYDILTGNPRDFDYWGQGTLVTVSS
VL: DTVMTQTPLSSHVTLGQPASISCRSSQSLVHSDGNTYLSWLQQRPGQPPRLLIYRISRRFSGVPDRFSGSGAGTDFTLEISRVEAEDVGVYYCMQSTHVPWTFGQGTKVEIK
notes: Recombinant human antibody (XenoMax)
B2: SC-EGFRvIII-XG1-250 (antibody, human IgG1, V domains shown)
VH: EGQLLESGGGWVQPGESLRLSCAASGFTFSSYAMSWVRQAPGKGLEWVSAISGSGGSTNYADSVKGRFTISRDNSKNTLYLQVNSLRVEDTAVYYCAGSSGWSEYWGQGTLVTVSS
VL: DIQMTQSPSSLSASVGDSVTITCRTSQGIRKNLGWYQQKPGKAPKRLIYAASSLQSGVPSRFSGSGSGTEFTLTISRLQPEDFATYYCLQHHSYPLTFGGGTRVEIR
notes: also called sc250; SC250
B3: SC-EGFRvIII-XG2-170 (antibody, human IgG1, V domains shown)
VH: QVQLQQSGPGLVKPSQTLSLTCAISGDSVSSNNAAWNWIRQSPARGLEWLGRTYYRSKWYNDYVVSVKSRITINPDTSKNQFSLQLNSVTPEDTAVYYCVRATAFDYWGQGTLVTVSS
VL: AIVLTQTPLSSPVTLGQPASISCRSSQSLVHRDGNTYLSWLQQRPGQPPRLLIYKISNRFSGVPDRFSGSGAGTDFTLKISRVEPDDVGVYYCMHTTQLPWTFGQGTKVEIK
B4: AB-EGFRvIII-XG1K-13.1.2 (antibody, V domains shown)
VH: QVQLVESGGGVVQPGRSLRLSCAASGFTFSSYGMHWVRQAPGKGLEWVAVIWYDGSNKYYVDSVKGRFTISRDNSKNTLYLQMNSLRAEDTAVYYCARDGWQQLAPFDYWGQGTLVTVSS
VL: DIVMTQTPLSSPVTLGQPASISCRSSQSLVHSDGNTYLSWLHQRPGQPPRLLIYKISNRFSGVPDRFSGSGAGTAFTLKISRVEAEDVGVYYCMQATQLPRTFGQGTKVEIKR
notes: Human IgG1 kappa from a XenoMouse G1 hybridoma; Residue numbers of the mutants count on this running numbering
B5: AB-EGFRvIII-XG1-095 (antibody, human IgG1, V domains shown)
VH: QVQLQESGPFLVKPSQTLSLTCTVSGGSISSGGYYWSWIRQHPGKGLEWIGFIYYRGNTYYNPSLKSRVTISVDTSKNQFSLKLSSVTAADTAVYYCARDGYCSRTGCYGGWFDPWGQGTLVTVSP
VL: DIVMTQTPLSSPVTLGQPASISCRSSQSLIHTDGNIYLSWLQQRPGQPPRLLIYKISNRFSGVPDRFSGSGAGTDFTLKISRVEAEDVGVYYCMQGTQFPITFGQGTRLEIK
B6: SC-EGFRvIII-XG2-150 (antibody, human IgG1, V domains shown)
VH: QVQLQQSGPGLVKPSQTLSLTCAISGDSVSSYSSAWNWIRQSPSRGLEWLGRAYHRSRWYYEYAVSVKSRINITPDTSKNQFSLQLNSVTPEDTAVYYCARGSRFDYWGQGTLVTVSS
VL: B3 VL with A1D, L4M, P85A, D86E, V90I, Y92F, L99F, K108R
B7: SC-EGFRvIII-XG1-211 (antibody, human IgG1, V domains shown)
VH: QVQLVESGGGVVQPGRSLRLSCVASGFTLSSYGMHWVRQAPGKGLEWVAVTSYDGSKKDYADSAKGRFTISRDNSKNTLYLQMNSLRAEDTAVYYCVSEGYCSSSSCYKYYYYGMDVWGQGTTVTVSS
VL: DIVMTQSPLSLPVTPGEPASISCRSSQSLLYRNGNNYLDWYLQRPGQSPQLLIYLGSNRASGVPDRFSGSGSGTDFTLKISRVEAEDVGVYYCMQALQTPRTFGQGTKVEIK
B8: SC-EGFRvIII-XG1-139 (antibody, human IgG1, V domains shown)
VH: B2 VH with G2V, L4V, W11L, E16G, V83M, V88A
VL: DIQMTQSPSSLSASVGDRVTITCRASQGIRNNLAWYQQKPGKAPKRLIYAASNLQSGVPSRFTGSGSGTEFTLIVSSLQPEDFATYYCLQHHSYPLTSGGGTKVEIK

Here are results for eight molecules from patent publication CN1930187A (ABGENIX INC, dated 2007).

Substitutions are numbered along the chain they refer to.

One assay deals with T1, EGFRvIII PEP3 peptide conjugated to OVA …. The assay is described as follows: binding to pep3 (XenoMax screen).
As for B1, the binding result is “binds”.

For B2, the binding result is on record as “binds”.

Another assay addresses EGFRvIII (full length, expressed by cells: NR6 M, H1477, 300.19/EGFRvIII) (human, UniProt P00533 298-1210). Briefly: cell-based or functional assay.
With B3, the “%内在化” value came to 20.1%.

On to B4, for which the “%内在化” value amounted to 82.5%.

On to B5, for which the “%内在化” value came out at 72.4%.

As for B6, the “%内在化” value is 20%.

In the case of B7, the “%内在化” value is 21.6%.

Consider B8, for which the “%内在化” value turned out to be 80.8%.

For the molecule B2, the “%内在化” value is 16.7%.
